Laboratory results as given in the RNAGym collection of RNA variant scans (doi:10.1093/nar/gkz1192).

B1: CPEB3 Ribozyme (parent)
chain: UAACAGGGGGCCACAGCAGAAGCGUUCACGUCGCAGCCCCUGUCAGAUUCUGGUGAAUCUGCGAAUUCUGCUGUAUAUCUC

Variants of: B1
Test: self-cleavage, relative activity (ratio to wild type); higher = more cleavage; in vitro, sequencing
Procedure, shortened: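 Libraries of CPEB3 self-cleaving ribozyme mutants came from rounds of error-prone PCR and carried barcodes, which DNA sequencing matched to variants. In vitro transcription used T7 RNA polymerase at 37°C for 5 hours, with a further 15 min in DNase I before EDTA stopped the reaction; the ribozymes cleaved during both steps. The RNA was reverse transcribed with template switching and sequenced on Illumina. Relative activity is the cleaved/total read fraction of a variant divided by that of the unmutated ribozyme, averaged over three batches with at least 5 reads.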

| Variant | self-cleavage |
| --- | --- |
| A2C A35G | 1.24 |
| U1G A13G | 0.66 |
| A2C U48C | 0.71 |
| U1G U48C | 0.79 |
| A2G U31A | 0.43 |
| A2G U31C | 0.41 |
| A2G A57U | 0.28 |
| A2G A57G | 0.5 |
| U1C A21C | 0.35 |
| U1C A21U | 0.3 |
| U1C A21G | 0.24 |
| A2G U49C | 0.32 |
| A2G U49A | 0.42 |
| A2G A56G | 0.5 |
| A2G A56U | 0.31 |
| A2G A20G | 0.61 |
| A2G A20U | 0.39 |
| A2G C62U | 0.32 |
| A2G C62A | 0.15 |
| U1C C23G | 0.42 |
| U1C C23U | 0.47 |

| Variant | self-cleavage |
| --- | --- |
| U1C C23A | 0.22 |
| U1C G24C | 0.31 |
| U1C U26C | 0.38 |
| U1C U26A | 0.81 |
| A2G G10U | 0.36 |
| A2G G10A | 0.41 |
| U1G U25C | 0.13 |
| U1C C79U | 0.8 |
| U1C C79A | 1.03 |
| U1C U74C | 1.21 |
| U1C U74A | 1.21 |
| U1C U74G | 1.19 |
| A2G G36C | 0.24 |
| A2G G36A | 0.16 |
| A2G A47C | 0.29 |
| A2G A47G | 0.48 |
| A2U | 0.96 |
| A2C | 0.91 |
| A2G | 0.7 |
| U1C U31C | 0.7 |
| U1C U31A | 0.43 |

| Variant | self-cleavage |
| --- | --- |
| A2G U43A | 1.02 |
| A2G U43C | 0.34 |
| A2G G8A | 0.3 |
| A2G G8U | 0.11 |
| U1G A57C | 0.37 |
| A2G U66C | 0.2 |
| A2G U66G | 0.28 |
| U1G A47G | 1.16 |
| A2C G9U | 0.21 |
| A2G G53A | 0.66 |
| A2G G53U | 0.72 |
| U1G A20C | 0.55 |
| A2C G8A | 0.1 |
| U1C G19U | 0.4 |
| U1C G19A | 0.32 |
| U1C G52A | 1 |
| A2G A18G | 0.48 |
| A2G A18C | 0.43 |
| A2G A18U | 0.38 |
| A2G U67C | 0.26 |
| A2G U67A | 0.3 |

| Variant | self-cleavage |
| --- | --- |
| A2G A75U | 0.84 |
| A2G A75G | 0.54 |
| U1C C32A | 0.26 |
| U1C C27U | 0.38 |
| A2C U58A | 0.2 |
| A2G U60A | 0.22 |
| A2G U60C | 0.25 |
| U1C C29U | 0.33 |
| U1C C29A | 0.32 |
| U1C C71U | 0.54 |
| A2G U25C | 0.49 |
| A2G U25A | 0.36 |
| U1C U49A | 0.61 |
| U1C U49C | 0.37 |
| A2G C68A | 0.11 |
| U1C G70U | 0.32 |
| U1C G70C | 0.35 |
| A2C U80A | 1.2 |
| A2C A13G | 0.49 |
| A2G C17U | 0.56 |
